Reference: patent US20030022283A1 (published 2003)
Substitutions are numbered along the chain they refer to. Where “and” joins values, the source holds several entries; their conditions need not be identical. Equal values may be shown once. One block for each molecule: values may come before it.

Key:
[1] = molecular target: T1, Rat NPY Y5 receptor, Y861 clone (rat, UniProt Q63634 1-445); experiment: competition with [125I]PYY, membranes of stably transfected 293S cells
T1 sequence: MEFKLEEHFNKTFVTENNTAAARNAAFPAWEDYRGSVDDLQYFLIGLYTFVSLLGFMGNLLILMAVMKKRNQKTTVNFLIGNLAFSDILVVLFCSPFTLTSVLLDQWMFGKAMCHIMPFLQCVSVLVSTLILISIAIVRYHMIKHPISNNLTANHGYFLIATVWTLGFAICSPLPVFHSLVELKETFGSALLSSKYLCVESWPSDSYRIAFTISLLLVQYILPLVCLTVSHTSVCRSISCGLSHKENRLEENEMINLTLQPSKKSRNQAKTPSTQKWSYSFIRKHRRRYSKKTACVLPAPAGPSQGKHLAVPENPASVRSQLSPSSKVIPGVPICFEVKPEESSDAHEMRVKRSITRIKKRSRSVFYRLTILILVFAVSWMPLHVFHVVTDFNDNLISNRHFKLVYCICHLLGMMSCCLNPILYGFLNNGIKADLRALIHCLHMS

[2] = molecular target: T1, Rat NPY Y5 receptor, Y861 clone; experiment: competition with [125I]PYY, membranes of transiently transfected COS-7 cells
[3] = molecular target: Human NPY Y5 receptor (human) (UniProt Q15761); experiment: competition with [125I]PYY, membranes of transiently transfected cells, one of the two experiments averaged
[4] = molecular target: Y5 receptor (clone not specified), transiently expressed in COS-7 cells; experiment: saturation binding, membranes of transiently transfected cells, nonlinear regression
[5] = molecular target: T2, Rat Y4/PP1 receptor (clone) (rat, UniProt Q63447 1-375); experiment: competition with rat [125I]PP, rat Y4/PP1 clone
T2 construct: also called Rat Y4/PP1 (clone)
T2 sequence (Q63447 whole entry): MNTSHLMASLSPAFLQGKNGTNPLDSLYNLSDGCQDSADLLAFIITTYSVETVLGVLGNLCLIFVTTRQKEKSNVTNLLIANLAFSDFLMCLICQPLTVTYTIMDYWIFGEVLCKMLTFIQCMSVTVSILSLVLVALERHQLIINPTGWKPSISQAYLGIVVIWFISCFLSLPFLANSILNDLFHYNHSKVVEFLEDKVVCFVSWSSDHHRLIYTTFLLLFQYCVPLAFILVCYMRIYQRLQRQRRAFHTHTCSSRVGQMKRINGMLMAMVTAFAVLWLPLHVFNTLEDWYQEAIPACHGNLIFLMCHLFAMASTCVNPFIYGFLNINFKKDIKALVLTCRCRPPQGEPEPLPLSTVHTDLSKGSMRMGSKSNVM

[6] = molecular target: T1, Rat NPY Y5 receptor, Y861 clone; experiment: competition with [125I]PYY, membranes of transiently transfected COS-7 cells, one of the two experiments averaged
[7] = molecular target: T1, Rat NPY Y5 receptor, Y861 clone; experiment: competition with [125I]PYY, membranes of transiently transfected COS-7 cells, average of two experiments
[8] = molecular target: Rat NPY Y5 receptor, 6B clone (Y217.24.13.6B) (rat) (UniProt Q63634); experiment: competition with [125I]PYY, membranes of transiently transfected COS-7 cells, one of the two experiments averaged
[9] = molecular target: Rat NPY Y5 receptor, Y555 clone (rat) (UniProt Q63634); experiment: as above
[10] = molecular target: Rat NPY Y5 receptor, Y555 clone (rat) (UniProt Q63634); experiment: competition with [125I]PYY, membranes of transiently transfected COS-7 cells, average of two experiments
[11] = molecular target: T1, Rat NPY Y5 receptor, Y861 clone; experiment: competition with [125I]PYY, rat Y5 Y861 clone
[12] = molecular target: T1, Rat NPY Y5 receptor, Y861 clone; experiment: cell-based or functional assay
Human NPY Y5 receptor [13] = molecular target: T3, Human NPY Y5 receptor (human, UniProt Q15761 1-445); experiment: cell-based or functional assay
T3 sequence: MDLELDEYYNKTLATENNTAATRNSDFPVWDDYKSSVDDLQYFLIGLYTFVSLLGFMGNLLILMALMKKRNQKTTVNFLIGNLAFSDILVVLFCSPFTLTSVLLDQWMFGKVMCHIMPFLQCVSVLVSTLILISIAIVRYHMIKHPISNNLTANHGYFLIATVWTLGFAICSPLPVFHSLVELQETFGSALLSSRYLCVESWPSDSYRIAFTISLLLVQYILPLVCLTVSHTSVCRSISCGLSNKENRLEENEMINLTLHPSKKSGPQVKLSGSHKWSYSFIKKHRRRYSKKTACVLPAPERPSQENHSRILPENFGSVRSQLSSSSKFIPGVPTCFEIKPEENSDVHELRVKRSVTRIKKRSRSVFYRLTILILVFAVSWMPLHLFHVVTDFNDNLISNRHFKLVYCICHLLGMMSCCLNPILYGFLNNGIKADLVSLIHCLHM

Human NPY Y5 receptor [14] = molecular target: T3, Human NPY Y5 receptor; experiment: competition with [125I]PYY, membranes of transiently transfected cells, average of two experiments
[15] = molecular target: T4, Rat NPY Y5 receptor, 6B clone (Y217.24.13.6B) (rat, UniProt Q63634 1-445); experiment: competition with [125I]PYY, membranes of transiently transfected COS-7 cells
T4 construct: 445 amino acid protein; assayed as membranes of transiently transfected COS-7 cells; Has proline where Y555/Y589/Y861 have leucine in the first transmembrane domain; also called RAT 6B Clone; Y5 clone
T4 sequence: T1 sequence with L61P
Protocol: The binding assays were performed on GF/C Millipore (Bedford, Mass.) 96-well plates pretreated with 0.02% polyethylenimine (PEI) for at least 2 hours prior to use. The PEI was aspirated from the plates on a vacuum manifold immediately before the samples were added to the wells. All peptides, tissue and radioligand were diluted with binding buffer (25 mM Tris, 120 mM NaCl, 5 mM KCl, 1.2 mM KH₂PO₄, 2.5 mM CaCl₂, 1.2 mM MgSO₄, 0.1% BSA and 0.5 mg/ml bacitracin, pH 7.4).
Each point is the average value of triplicate determinations from a representative experiment. […] Kᵢ values were calculated from the IC₅₀ values using the Cheng-Prusoff correction, such that Kᵢ=IC₅₀/(1±(L/Kd)), where L is the radioligand concentration and Kd is the dissociation constant.

Human NPY Y5 receptor [16] = molecular target: T3, Human NPY Y5 receptor; experiment: competition with [125I]PYY, membranes of transiently transfected cells, one of the two experiments averaged
Human NPY Y5 receptor [17] = molecular target: T3, Human NPY Y5 receptor; experiment: competition with [125I]PYY, membranes of stably transfected 293 cells

Molecule: (13-36)PYY (species not stated, Table 2) (peptide)
Ki [1]: 29 nM

Molecule: [125I]PYY (radioiodinated peptide YY) (ligand)
receptor density (Bmax) (fmol/mg protein) [4]: 140

Molecule: (32D-Trp)NPY (peptide)
IC50 [11]: 7 nM

B2: human pancreatic polypeptide (ligand, UniProt P01298 30-65, looked up)
peptide: APLEPVYPGDNATPEQMAQYAADLRRYINMLTRPRY
notes: mature; also called hPP
IC50 [5]: 0.065 nM
EC50, forskolin-stimulated adenylate cyclase (cAMP radioimmunoassay), stably transfected 293S cells [12]: 1 nM
Ki [2]: 4 nM
IC50 [11]: 4.9 nM
Ki [1]: 2.5 nM

Other lines, results leading:

Ki [2]: 86 nM
Ki [3]: 89 nM and 65 nM
Molecule: rat (13-36)NPY (as printed in Table 1) (from UniProt P07808 42-65) (peptide)

IC50 [5]: 20 nM
Molecule: rat/human (Leu31Pro34)(3-36)NPY (from UniProt P01303 31-64) (peptide)

Ki [2]: 206 nM
Molecule: porcine (18-36)NPY (from UniProt P01304 27-45) (peptide)

Ki [6]: 2.3 nM
Ki [7]: 2 nM
Molecule: porcine (3-36)NPY (from UniProt P01304 12-45) (peptide)

Ki [8]: 7.9 nM and 7.5 nM
IC50 [9]: 38 nM and 41 nM
Ki [6]: 25 nM and 19 nM
IC50 [10]: 40 nM
Molecule: porcine (13-36)NPY (from UniProt P01304 22-45) (peptide)

IC50 [5]: 0.071 nM
EC50, forskolin-stimulated adenylate cyclase (cAMP radioimmunoassay), stably transfected 293S cells [12]: 112 nM
EC50, forskolin-stimulated adenylate cyclase (cAMP radioimmunoassay), stably transfected 293 cells (Human NPY Y5 receptor [13]): > 1000 nM
Ki (Human NPY Y5 receptor [14]): 436 nM
Ki [15]: 62 nM
Ki [2]: 296 nM
IC50 [11]: 325 nM
Ki (Human NPY Y5 receptor [16]): 290 nM and 582 nM
Ki (Human NPY Y5 receptor [17]): 286 nM
Ki [1]: 203 nM
B1: rat pancreatic polypeptide (ligand, UniProt P06303 30-65, looked up)
peptide: APLEPMYPGDYATHEQRAQYETQLRRYINTLTRPRY
notes: mature; also called rPP; rat PP
